# T1: human retinal guanylyl/guanylate cyclase 1 (RetGC1), wild type (human) (UniProt Q02846)
# T1 sequence: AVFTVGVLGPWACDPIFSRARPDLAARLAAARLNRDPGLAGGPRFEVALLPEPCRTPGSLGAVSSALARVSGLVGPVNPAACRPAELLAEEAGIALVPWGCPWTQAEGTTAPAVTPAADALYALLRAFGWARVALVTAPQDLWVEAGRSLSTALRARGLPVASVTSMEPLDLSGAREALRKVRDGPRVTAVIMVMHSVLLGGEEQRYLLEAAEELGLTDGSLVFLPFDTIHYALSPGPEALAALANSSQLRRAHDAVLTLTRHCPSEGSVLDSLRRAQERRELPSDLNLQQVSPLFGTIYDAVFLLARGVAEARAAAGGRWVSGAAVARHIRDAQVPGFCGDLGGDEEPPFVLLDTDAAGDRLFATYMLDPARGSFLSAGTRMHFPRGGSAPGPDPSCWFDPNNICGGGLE
# What was measured:
# [1] = target: human RetGC1 p.(Arg624Gln) (human) (UniProt Q02846)
# [2] = target: human RetGC1 p.(Leu587Val) (human) (UniProt Q02846)
# [3] = target: T1, human retinal guanylyl/guanylate cyclase 1 (RetGC1), wild type (human)
# [4] = target: human RetGC1 p.(Tyr555Ser) (human) (UniProt Q02846)
binder,measurement,setting,value
Human GCAP1 (Ser6) (natural protein) MGNVMSGKSVEELSSTECHQWYKKFMTECPSGQLTLYEFRQFFGLKNLSPSASQYVEQMFETFDFNKDGYIDFMEYVAALSLVLKGKVEQKLRWYFKLYDVDGNGCIDRDELLTIIQAIRAINPCSDTTMTAEEFTDTVFSKIDVNGDGELSLEEFIEGVQKDQMLLDTLTRSLDLTRIVRRLQNGEQDEEGADEAAEAAG,"[GCAP]1/2: GCAP1 concentration producing half-maximal stimulation of guanylyl cyclase activity (HEK293 membranes, 10 mM MgCl2, 2 mM EGTA)",[1],4.1 µM
same,"[GCAP]1/2: GCAP1 concentration producing half-maximal stimulation of guanylyl cyclase activity (HEK293 membranes, 10 mM MgCl2, 2 mM EGTA)",[2],2.4 µM
same,"[GCAP]1/2: GCAP1 concentration producing half-maximal stimulation of guanylyl cyclase activity (HEK293 membranes, 10 mM MgCl2, 2 mM EGTA)",[3],0.98 µM
same,"[GCAP]1/2: GCAP1 concentration producing half-maximal stimulation of guanylyl cyclase activity (HEK293 membranes, 10 mM MgCl2, 2 mM EGTA)",[4],4.4 µM

# From article PMC12155690
